{
  "source": "patent US20190018005A1",
  "binders": {"B1": {"name": "poly-protein G (soluble; HA, eight repeats of C2 domain of protein G with linkers, six histidines) (protein, not shown: small tags and cut ends)", "chain": "TYKLVINGKTLKGETTTEAVDAATAEKVFKQYANDNGVDGEWTYDDATKTFTVTEGGGGSGGGGSVETYKLVINGKTLKGETTTEAVDAATAEKVFKQYANDNGVDGEWTYDDATKTFTVTEGGGGSGGGGSVETYKLVINGKTLKGETTTEAVDAATAEKVFKQYANDNGVDGEWTYDDATKTFTVTEGGGGSGGGGSVETYKLVINGKTLKGETTTEAVDAATAEKVFKQYANDNGVDGEWTYDDATKTFTVTEGGGGSGGGGSVETYKLVINGKTLKGETTTEAVDAATAEKVFKQYANDNGVDGEWTYDDATKTFTVTEGGGGSGGGGSVETYKLVINGKTLKGETTTEAVDAATAEKVFKQYANDNGVDGEWTYDDATKTFTVTEGGGGSGGGGSVETYKLVINGKTLKGETTTEAVDAATAEKVFKQYANDNGVDGEWTYDDATKTFTVTEGGGGSGGGGSVETYKLVINGKTLKGETTTEAVDAATAEKVFKQYANDNGVDGEWTYDDATKTFTVTEGGGGSGGGGSVHHHHHH"}},
  "key": {"[1]": {"biological_target": "3.3 antibody (an anti-PEG antibody, IgG type)", "assay": "ELISA, biotin-3.3Ab 1 µg/mL on plate coated with poly-protein G, streptavidin-HRP, OD405"}, "[2]": {"biological_target": "3.3 antibody (an anti-PEG antibody, IgG type)", "assay": "ELISA, biotin-3.3Ab 0.11 µg/mL on plate coated with poly-protein G, streptavidin-HRP, OD405"}, "[3]": {"biological_target": "3.3 antibody (an anti-PEG antibody, IgG type)", "assay": "ELISA, biotin-3.3Ab 0.33 µg/mL on plate coated with poly-protein G, streptavidin-HRP, OD405"}, "[4]": {"biological_target": "3.3 antibody (an anti-PEG antibody, IgG type)", "assay": "ELISA, biotin-3.3Ab 0.0123 µg/mL on plate coated with poly-protein G, streptavidin-HRP, OD405"}, "[5]": {"biological_target": "3.3 antibody (an anti-PEG antibody, IgG type)", "assay": "ELISA, biotin-3.3Ab 0.0371 µg/mL on plate coated with poly-protein G, streptavidin-HRP, OD405"}},
  "data": [
    {"binder": "B1", "values": [
      {"measurement": "fold antibody amount loaded vs commercial protein G-based plate", "setting": "[1]", "value": 1.15, "unit": "times"},
      {"measurement": "fold antibody amount loaded vs traditional polystyrene-based plate", "setting": "[1]", "value": 1.3, "unit": "times"},
      {"measurement": "fold antibody amount loaded vs commercial protein G-based plate", "setting": "[2]", "value": 4, "unit": "times"},
      {"measurement": "fold antibody amount loaded vs traditional polystyrene-based plate", "setting": "[2]", "value": 10, "unit": "times"},
      {"measurement": "fold antibody amount loaded vs commercial protein G-based plate", "setting": "[3]", "value": 1.3, "unit": "times"},
      {"measurement": "fold antibody amount loaded vs traditional polystyrene-based plate", "setting": "[3]", "value": 2.2, "unit": "times"},
      {"measurement": "fold antibody amount loaded vs commercial protein G-based plate", "setting": "[4]", "value": 7.8, "unit": "times"},
      {"measurement": "fold antibody amount loaded vs traditional polystyrene-based plate", "setting": "[4]", "value": 14, "unit": "times"},
      {"measurement": "fold antibody amount loaded vs commercial protein G-based plate", "setting": "[5]", "value": 5.8, "unit": "times"},
      {"measurement": "fold antibody amount loaded vs traditional polystyrene-based plate", "setting": "[5]", "value": 20, "unit": "times"}
    ]}
  ]
}
